Assay [1] addresses HA of A/Vietnam/1203/04 on pseudotyped virus (H5-VN04 pseudovirus) (influenza A virus A/Vietnam/1203/04 …). Nature of the assay: cell-based or functional assay.
The target of assay [2] is HA on infectious virus A/Brisbane/10/07 (H3N2-BR07) (influenza A virus A/Brisbane/10/07 …). Nature of the assay: cell-based or functional assay.
The target in assay [3] is Cell surface-expressed HA of A/Aichi/2/68 (H3-A2/68) (influenza A virus A/Aichi/2/68 (H3N2), UniProt P03437 17-566). Nature of the assay: flow cytometry on HA-transfected cells.
In assay [4] the target is DTT reduced, trimeric HA2 (tHA2) of surface-expressed H3-A2/68 (influenza A virus A/Aichi/2/68 (H3N2), UniProt P03437 346-566). The assay is described as follows: flow cytometry on HA-transfected cells after trypsin, pH 4.9 and DTT.
For assay [5], the target named is Recombinant full length HA of H1 A/Solomon Islands/3/06 (H1-SI06) (influenza A virus A/Solomon …). The assay is described as follows: recombinant HA; footnote says SPR biosensor, methods describe BLI. Background: In SPR one partner is held on a chip, and binding of the other changes the refractive index at the surface.
Assay [6] addresses Recombinant full length HA of H1 A/Puerto Rico/8/34 (H1-PR8) (influenza A virus A/Puerto Rico/8/34 …, UniProt P03452 18-565). Described as above.
Assay [7] deals with Recombinant full length HA of H14 A/mallard/Astrakhan/263/82 (H14-AS82) (influenza A virus …, UniProt P26136 18-568). The assay is described as above.

B1: 3I14 IgG1 (antibody, V domains shown)
VH: QVQLLESGGGVVQPGRSLRLSCAASGFTFSNYGMHWVRQAPGKGLEWVAIISFDGSKKYYANSVKGRSTISRDNSKNTLSLQMNSLGPEDTALYYCAKLPSPYYFDSRFVWVAASAFHFWGQGILVTVSS
VL: NFMLTQPPSASGTPGQRVTISCSGSSSNIGGNTVHWFQQLPGTAPKLLIYTNSLRPSGVPDRFSGSKSGTSASLAISGLQSEDEADYYCAAWDDSLNGQVFGGGTKLTVL
Take B1: the “IC50, neutralization of H5-VN04 pseudovirus” value in assay [1] was found to be 0.0816 µg/mL. The “IC50, neutralization of pseudovirus” value in assay [1] was 2.14 µg/mL. The “IC50, neutralization of infectious H3-BR07 virus” value in assay [2] amounted to 0.305 µg/mL. The binding result in assay [3] is “binds”; in assay [4], “no binding”. Besides, the Kd (as a rule, the equilibrium constant for the complex coming apart) in assay [5] was 0.03 nM; in assay [6] it was 0.08 nM; in assay [7], 0.29 nM.
